Experimental findings from patent US20240132603A1 (HARBOUR BIOMED US, published 2024) are described below.

Where a chain is given by its changes, count along the chain named. Read-outs that look alike come from different tables or passages of the source.

Assay [1] addresses T1, human CCR8 (human, UniProt P51685 1-355).
T1 construct: whole, on cells; construct used for the overexpressing cell lines is not described; also called hCCR8
As to the kind of experiment: FACS, CHO-K1-hCCR8 cells. The method in brief:
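Cells are harvested with pancreatin and brought to 1E6 cells/mL. They then receive anti-CCR8 antibody (5-fold series, top 200 nM, 1 h, 4 °C), washes, secondary antibody (1:1000, 40 min, 4 °C) and FACS analysis.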

Assay [2] deals with T1, human CCR8. As to the kind of experiment: cell-based or functional assay.
Assay [3] concerns the target T2, cynomolgus monkey CCR8 (cynomolgus monkey, UniProt G7NYJ2 1-355).
T2 construct: whole, on cells; also called CynoCCR8
As to the kind of experiment: FACS, CHO-K1-CynoCCR8 cells. On the procedure:
(§1) Cells overexpressing cynomolgus monkey CCR8, CHO-K1-CynoCCR8, were digested with pancreatin, counted and resuspended to a cell density of 1E6 cells/mL. The cell suspension was added to a 96-well V-bottom plate at 100 μL/well and centrifuged at 300 g for 5 min, and the supernatant was discarded. The anti-CCR8 antibodies provided herein was used as a primary antibody and diluted in a 5-fold gradient with an FACS buffer (DPBS containing 2% FBS) from 200 nM. The diluted primary antibody was added at 100 μL/well to resuspend the cells, and the mixture was incubated at 4° C. for 1 h. The plate was washed twice with DPBS and centrifuged at 300×g for 5 min, and the supernatant was discarded. The secondary antibody diluted in a 1:1000 ratio with an FACS buffer was added at 100 μL/well to suspend the cells, and the mixture was incubated at 4° C. for 40 min. The plate was washed twice with DPBS and centrifuged at 300×g for 5 min, and the supernatant was discarded. DPBS was added at 200 μL/well to suspend the cells, and the mixture was loaded on an FACS machine for analysis.

Assay [4] deals with T1, human CCR8. As to the kind of experiment: FACS competition on HEK293-hCCR8 cells against a biotin-labelled anti-CCR8 antibody at its EC80; the labelled antibody of this panel is not named on the sheet. On the procedure: (§2) The antibody was conjugated with Sulfo-NHS-LC-Biotin at a molar ratio of 5:1 (1 mol antibody was added to 5 mol Sulfo-NHS-LC-Biotin) with reference to the product instructions (ThermoFisher, Cat No. A39257) and incubated on ice for 2 h. The coupled antibody was purified with a Zeba desalting column (ThermoFisher, Cat No. 89882). Cells overexpressing human CCR8, HEK293-hCCR8, were added to a V-bottom 96-well plate at a density of 1E5 cells/well and centrifuged at 300 g for 5 min, and the supernatant was discarded. The competitive antibody was serially diluted in a ratio of 1:10 from 200 nM to obtain 8 concentration points. The Biotin-antibody and the competition antibody were mixed in a 1:1 ratio on an HEK293 cell line overexpressing human CCR8 by the binding EC₈₀ concentration. The cells in the 96-well plate were resuspended and incubated at 4° C. for 1 h. The plate was washed twice with DPBS at 200 μL/well. The secondary antibody diluted in a 1:1000 ratio was added at 100 μL/well, and the mixture was incubated at 4° C. for 40 min. The plate was washed twice with DPBS at 200 μL/well. Finally, DPBS was […] at 200 μL/well to suspend the cells, and the mixture was loaded on an FACS machine for analysis.

In assay [5] the target is T1, human CCR8. Briefly: FACS, CHO-K1-hCCR8 cells. On the procedure: as §1, with “human CCR8” for “cynomolgus monkey CCR8, CHO-K1-CynoCCR8,”
This is another data set of the same source. Background: A flow cytometer gives signals particle by particle.

For assay [6], the target named is T2, cynomolgus monkey CCR8. As to the kind of experiment: FACS, CHO-K1-CynoCCR8 cells. On the procedure:
as §1
The source holds these as a separate data set.

The target of assay [7] is T1, human CCR8. As to the kind of experiment: FACS competition on HEK293-hCCR8 cells against a biotin-labelled anti-CCR8 antibody at its EC80; the labelled antibody of this panel is not named on the sheet. On the procedure: as §2
This is another data set of the same source.

Assay [8] addresses T1, human CCR8. The assay is described as above. On the procedure:
as §2
This is another data set of the same source.

Assay [9] addresses T1, human CCR8. Briefly: FACS, CHO-K1-hCCR8 cells. On the procedure: as §1, with “human CCR8” for “cynomolgus monkey CCR8, CHO-K1-CynoCCR8,”
This is another data set of the same source.

Assay [10] addresses T1, human CCR8. As to the kind of experiment: FACS, Baf3-hCCR8 cells. On the procedure: as §1, with “human CCR8” for “cynomolgus monkey CCR8, CHO-K1-CynoCCR8,”
Assay [11] has as its target T1, human CCR8. As to the kind of experiment: FACS, HEK293-hCCR8 cells. On the procedure: as §1, with “human CCR8” for “cynomolgus monkey CCR8, CHO-K1-CynoCCR8,”
Assay [12] addresses T2, cynomolgus monkey CCR8. Briefly: FACS, CHO-K1-CynoCCR8 cells. On the procedure: as §1
This is another data set of the same source.

Assay [13] deals with T2, cynomolgus monkey CCR8. Briefly: FACS, CHO-K1-CynoCCR8 cells. On the procedure:
as §1
The source holds these as a separate data set.

For assay [14], the target named is T1, human CCR8. Briefly: FACS, CHO-K1-hCCR8 cells. On the procedure: as §1, with “human CCR8” for “cynomolgus monkey CCR8, CHO-K1-CynoCCR8,”
This is another data set of the same source.

Assay [15] has as its target T1, human CCR8. Briefly: cell-based or functional assay. This is another data set of the same source.
Assay [16] deals with T1, human CCR8. Briefly: FACS competition on HEK293-hCCR8 cells against a biotin-labelled anti-CCR8 antibody at its EC80; the labelled antibody of this panel is not named on the sheet. On the procedure:
as §2
The source holds these as a separate data set.

The target in assay [17] is T1, human CCR8. As to the kind of experiment: FACS, HEK293-hCCR8 cells. On the procedure: as §1, with “human CCR8” for “cynomolgus monkey CCR8, CHO-K1-CynoCCR8,”
This is another data set of the same source.

Assay [18] deals with T1, human CCR8. As to the kind of experiment: FACS competition on HEK293-hCCR8 cells against a biotin-labelled anti-CCR8 antibody at its EC80; the labelled antibody of this panel is not named on the sheet. On the procedure:
as §2
This is another data set of the same source.

T1 sequence (P51685 whole entry): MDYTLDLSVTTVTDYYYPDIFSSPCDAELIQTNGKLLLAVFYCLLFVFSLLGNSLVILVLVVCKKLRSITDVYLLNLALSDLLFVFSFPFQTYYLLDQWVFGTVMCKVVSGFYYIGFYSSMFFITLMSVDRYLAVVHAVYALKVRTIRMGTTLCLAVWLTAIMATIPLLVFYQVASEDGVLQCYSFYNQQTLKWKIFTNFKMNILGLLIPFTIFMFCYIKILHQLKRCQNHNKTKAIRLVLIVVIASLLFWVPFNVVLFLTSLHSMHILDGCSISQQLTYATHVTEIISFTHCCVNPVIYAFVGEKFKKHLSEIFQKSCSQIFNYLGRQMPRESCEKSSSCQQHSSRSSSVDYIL
T2 sequence (G7NYJ2 entry or part of it): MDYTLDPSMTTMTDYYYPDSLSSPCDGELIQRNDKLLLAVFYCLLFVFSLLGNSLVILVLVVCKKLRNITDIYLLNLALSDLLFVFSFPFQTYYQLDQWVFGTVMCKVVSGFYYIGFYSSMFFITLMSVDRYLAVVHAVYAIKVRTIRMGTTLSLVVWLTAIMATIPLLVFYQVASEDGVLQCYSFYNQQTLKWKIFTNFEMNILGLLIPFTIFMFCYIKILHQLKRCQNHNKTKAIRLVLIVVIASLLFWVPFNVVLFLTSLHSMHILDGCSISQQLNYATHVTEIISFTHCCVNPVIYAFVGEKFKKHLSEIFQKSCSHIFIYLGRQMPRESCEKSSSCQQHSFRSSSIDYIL

B1: PR006275AF (antibody, human IgG1, kappa)
heavy: not shown
light: DIVMTQSPLSLPVTLGQPASISCRSSKSLLHSNAKIYLYWFQQRPGQSPRLLIYRMSNLASGVPDRFSGSGSGTDFTLKISRVEAEDVGVYYCMQHLEYPLTFGQGTKLEIKRTVAAPSVFIFPPSDEQLKSGTASVVCLLNNFYPREAKVQWKVDNALQSGNSQESVTEQDSKDSTYSLSSTLTLSKADYEKHKVYACEVTHQGLSSPVTKSFNRGEC
modifications: afucosylated (AF) Fc glycan, produced with 2-fluoro peracetylated fucose
notes: also called PR00PR006275AF; R00PR006275AF
For orientation: EC50 means the midpoint of the concentration-response curve. On to B1, for which the EC50 in the assay with human CCR8 [1] stood at 0.4 nM; in the assay with cynomolgus monkey CCR8 [3], 0.51 nM. Also, in the assay with human CCR8 [2], the “EC50, ADCC reporter gene activity (Jurkat/FcγR III-NFAT effector cells)” value came out at 2.6 nM.

B2: PR006276AF (antibody, human IgG1, kappa)
heavy: not shown
light: B1 light
modifications: afucosylated (AF) Fc glycan, produced with 2-fluoro peracetylated fucose
On to B2, for which the 50% effective concentration (EC50) with human CCR8 [1] amounted to 0.39 nM; in the assay with cynomolgus monkey CCR8 [3], 0.5 nM. Besides, in the assay with human CCR8 [2], the “EC50, ADCC reporter gene activity (Jurkat/FcγR III-NFAT effector cells)” value worked out at 1.66 nM.

B3: PR004128 (antibody, human IgG1, kappa)
heavy: not shown
light: DIVMTQAAPSVPVTPGESVSISCRSSKSLLHSNGKIYLYWFLQRPGQSPQLLIYRMSNLASGVPDRFSGSGSGTAFTLRISRVEAEDVGVYYCMQHLEYPLTFGAGTKLEIKRTVAAPSVFIFPPSDEQLKSGTASVVCLLNNFYPREAKVQWKVDNALQSGNSQESVTEQDSKDSTYSLSSTLTLSKADYEKHKVYACEVTHQGLSSPVTKSFNRGEC
notes: chimeric, human IgG1 constant region; also called RP004128; PRO4128
For B3, the “IC50 (read off the curve)” value with human CCR8 [4] is approximately 2 nM; with human CCR8 [7] it was approximately 2 nM; in the assay with human CCR8 [8] it was 1 to 2 nM; with human CCR8 [16], approximately 3 nM; with human CCR8 [18] it was approximately 2 nM. Besides, the EC50 with human CCR8 [1] is 0.42 nM; in the assay with human CCR8 [5] it was 0.55 nM; with cynomolgus monkey CCR8 [6], 7.39 nM; with human CCR8 [9], 0.91 nM; with human CCR8 [10], 0.14 nM; in the assay with human CCR8 [11], 0.87 nM. The 50% effective concentration (EC50) in the assay with cynomolgus monkey CCR8 [12] was 4.73 nM; with cynomolgus monkey CCR8 [13], 2.26 nM; with human CCR8 [14], 2.54 nM; with human CCR8 [17], 4.53 nM; with cynomolgus monkey CCR8 [3] it was 0.83 nM. Moreover, the “Bottom %, blocking of CCL1-stimulated calcium flux” value with human CCR8 [15] was determined as 7%. The “IC50(nM), blocking of CCL1-stimulated calcium flux” value in the assay with human CCR8 [15] was determined as 1.51 nM.

B4: PR004121 (antibody, human IgG1, kappa, V domains shown)
VH: EVQLVESGGGLVQPKGSLKLSCAASGFTFNTYAMNWVRQAPGKGLEWVARIRSKSNNYATYYADSVKDRFTISRDDSQNMLYLQMNNLKTEDTAMYYCVRGKENGNYYAMDFWGQGTSVTVSS
VL: DIVITQAAPSVPVTPGESVSISCRSSKSLLHSNGNTYLYWFLQRPGQSPQLLIYRMSNLASGVPDRFSGSGSGTAFTLRISRVEAEDVGVYYCMQHLEYPFTFGGGTKLEMKR
notes: chimeric, human IgG1 constant region
With B4, the “IC50 (read off the curve)” value with human CCR8 [4] is approximately 2 nM; with human CCR8 [7], approximately 2 nM; with human CCR8 [8], 1 to 2 nM; with human CCR8 [16] it was approximately 3 nM; in the assay with human CCR8 [18] it was approximately 2 nM. Also, the concentration giving a half-maximal response (EC50) with human CCR8 [1] was determined as 0.41 nM; in the assay with human CCR8 [10], 0.22 nM; with human CCR8 [11], 0.63 nM; in the assay with human CCR8 [17] it was 0.9 nM. For the same molecule, the “Bottom %, blocking of CCL1-stimulated calcium flux” value with human CCR8 [15] came to 0%. In addition, in the assay with human CCR8 [15], the “IC50(nM), blocking of CCL1-stimulated calcium flux” value worked out at 1.44 nM.

B5: PR004131 (antibody, human IgG1, kappa)
heavy: not shown
light: B3 light with S26N, K35N, I36T
notes: as for B4
Regarding B5, the “IC50 (read off the curve)” value with human CCR8 [4] was approximately 2 nM; with human CCR8 [7], approximately 2 nM; with human CCR8 [8], 1 to 2 nM; in the assay with human CCR8 [16] it was approximately 3 nM; with human CCR8 [18], approximately 2 nM. Moreover, the EC50 was 0.52 nM with human CCR8 [1]; 8.65 nM with cynomolgus monkey CCR8 [6]; 0.2 nM in the assay with human CCR8 [10]; 0.79 nM with human CCR8 [11]; 1.94 nM with human CCR8 [17]; 1.6 nM with cynomolgus monkey CCR8 [3]. Besides, the “Bottom %, blocking of CCL1-stimulated calcium flux” value in the assay with human CCR8 [15] is 0%. The “IC50(nM), blocking of CCL1-stimulated calcium flux” value with human CCR8 [15] stood at 1.67 nM.
